The values below come from patent US20240115742A1, “FLUORINATED FIBERS FOR MULTIMODAL 1H AND 19F MRI, ULTRASOUND, FLUORESCENCE DETECTION AND CONFORMATIONAL AND TEMPERATURE DETECTION BY 19F MRS” (New York University, priority 2022, published 2024).

Read-outs that look alike come from different tables or passages of the source. Square brackets hold non-standard residues; d marks the D form. Ends that are not written are not given here. LTF = trifluoroleucine

The nature of data set [1]: ATR-FTIR peak deconvolution of secondary structure. The data set is classed as physicochemical. The procedure: Attenuated Total Reflectance-Fourier Transform Infrared Spectroscopy. Secondary structure of protein fiber variants was confirmed using attenuated total reflectance-Fourier transform infrared (ATR-FTIR) spectroscopy using the Nicolet 6700 Fourier Transform Infrared Spectrometer equipped with a diamond ATR accessory and a mercury cadmium telluride (MCT)-A detector. Spectra were collected for 5 μL of 500 μM protein from 4000-400 cm^−1 with 0.5 cm^−1 increments at room temperature (RT). For CCM bound protein, protein was bound at a final concentration of 500 μM and saturated with CCM as determined by fluorescent spectroscopic drug binding with a final 1% v/v DMSO. Sample spectra were normalized using buffer background and analyzed from 1700-1600 cm^−1 corresponding to the amide I region. Peaks were deconvoluted using Gaussian functions in PeakFit software until the goodness of fit reached r^2≥0.99. Peaks were associated with secondary structure were determined by methods known in the art.
(§1) Attenuated Total Reflectance-Fourier Transform Infrared Spectroscopy. Secondary structure of Q2 protein was confirmed using attenuated total reflectance-Fourier transform infrared (ATR-FTIR) spectroscopy using the Nicolet 6700 Fourier Transform Infrared Spectrometer equipped with a diamond ATR accessory and a mercury cadmium telluride (MCT)-A detector. Spectra were collected for 5 μL of 2 mM protein from 4000-400 cm^−1 with 0.5 cm^−1 increments. Sample spectra were normalized using buffer background and analyzed from 1700-1600 cm^−1 corresponding to the amide I region. Peaks were deconvoluted using Gaussian functions in PeakFit software until the goodness of fit reached r^2>0.99.
as §1, with “of Q2LTF and QLTF” for “of Q2”, “using a” for “using the”, “of 1” for “of 2”, “with 4.0” for “with 0.5”, “reached r^2≥0.99.” for “reached r^2>0.99.”
Attenuated Total Reflectance-Fourier Transform Infrared Spectroscopy. Secondary structure before (solution) and after gelation (gel) was also assessed by peak deconvolution of attenuated total reflectance-Fourier transform infrared (ATR-FTIR) spectra. ATR-FTIR measurements were performed using a Nicolet 6700 Fourier Transform Infrared Spectrometer equipped with a mercury cadmium telluride (MCT)-A detector. Spectra were collected for 5 μL samples of protein at 2 mM from 4000-400 cm^−1 with a 4.0 cm^−1 resolution, normalized, and buffer-subtracted prior to analysis from 1700-1600 cm^−1, corresponding to the amide I region. ATR-FTIR measurements were performed immediately after concentration to 2 mM for solution measurements and after. Peaks were deconvoluted using Gaussian functions in PeakFit software until the goodness of fit reached r^2≥0.99.

A further data set in a line: TEM of protein fibers. The format is physicochemical. To be noted: fibers, 50 mM NaH2PO4 pH 4.0. The protocol: Transmission Electron Microscopy. Transmission electron microscopy (TEM) images were taken with a FEI Talos L120C transmission electron microscope. Protein fiber samples were diluted to 50 μM and 3 μL was spotted on Formvar/carbon-coated copper grids followed by 5 μL wash with water, and 3 μL staining with 1% v/v uranyl acetate solution each with incubation times of 1 min at RT. Fibrils were sized in ImageJ software (Version 1.52q).
Transmission Electron Microscopy. Transmission electron microscopy (TEM) images were taken with a FEI Talos L120C transmission electron microscope. Samples were diluted to 50 μM and 3 μL was spotted on Formvar/carbon-coated copper grids followed by a 5 μL wash with water, and 3 μL staining with 1% v/v uranyl acetate solution each with incubation times of 1 min. Between steps, filter paper was used to wick the grids. Following imaging, fibrils were sized in ImageJ software (Version 1.52q).

Data set [2] in a line: Confocal microscopy of CCM-bound fibers. The format is physicochemical. The following applies: 50 μM protein saturated with CCM, pH 4.0. The protocol: Confocal Microscopy. Protein bound to CCM was studied by measuring 50 μM protein samples saturated with CCM as determined by fluorescent spectroscopic drug binding with a final 1% v/v DMSO (or 2×Kd). 10 μL of protein was added to a micro slide and a 22×22 mm #1 microscope cover glass. Slides were inverted and imaged using a Leica TCS SP8 X Laser Confocal Microscope using a dry 10× objective at RT. CCM was excited using a 460 nm line of the laser, and images were taken using a 470 to 550 nm detection window.
Confocal Microscopy. Q2LTF was diluted to 50 μM and saturated with 40 μM of curcumin (solubilized in DMSO) as determined by the binding affinity in drug-binding experiments. […] 5 μL of sample was deposited onto a microslide and covered with a 22×22 mm #1 microscope cover glass. Images were taken with a Leica TCS SP8 X laser confocal microscope using a dry 10× objective at RT. Samples were excited at 460 nm and images were taken with a 470-550 nm detection window.

Data set [3] in a line: CD temperature scans (melting temperature). The format is physicochemical. The procedure: Circular Dichroism Spectroscopy. Secondary structure was first assessed using the Jasco J-815 CD spectrometer with a PTC-423S single position Peltier temperature control system. Wavelength scans were performed from 190 to 250 nm using 15 μM samples at 1 nm step sizes at 25° C. Temperature scans were performed at α-helical minimum 222 nm from 20 to 85° C. The mean residue ellipticity (MRE) was calculated as described previously. MRE at 222 nm and 208 nm and their ratios were used to assess relative helicity.
Circular Dichroism Spectroscopy. The secondary structure of Q2LTF and QLTF was assessed using a Jasco J-815 circular dischroism (CD) spectrometer with a PTC-423S single position Peltier temperature control system. Wavelength scans were performed from 195 to 250 nm at 1 nm step sizes by diluting the protein into water (at approximately 10 μM) in order to minimize the effects of sodium chloride. […] The mean residue ellipticity (MRE) was calculated as described.

For data set [4] the following is noted: previous studies, cited from earlier work.

For the molecule “C2: C variant with redistributed electrostatic patches, SEQ ID NO: 22 (MRGSHHHHHHGSIEGRMQLAKHMLKELQKTNALQSVRTLLQQQVEEITQLKETVENSDSS) [Protein C2]”, the aggregated strands in data set [1] (native) is 5.3%; in data set [1] (w/CCM), 9.0%. Besides, the “antiparallel β-sheet/aggregated strands” value amounted to 15.0% in data set [1] (native) and 4.8% in data set [1] (w/CCM). For the same molecule, the “average protein fiber diameter (TEM)” value in “TEM of protein fibers” is 73±18 nm. For the same molecule, the “fiber diameter after CCM binding (confocal)” value in data set [2] turned out to be 6.89±2.54 μm. In addition, the melting temperature stood at 69.6±7.8 °C in data set [3] (CCM-bound, pH 4.0) and 49.4±1.1 °C in data set [3] (native, 50 mM NaH2PO4 pH 4.0).
“QLTF: Q with leucines replaced by trifluoroleucine, SEQ ID NO: 19 (MRGSHHHHHHGSIEGRVKEITF[LTF]KNTAPQM[LTF]RE[LTF]QETNAA[LTF]QDVRE[LTF][LTF]RQQSK[LTF]; ends and bridges not checked) [reference compound]”: the melting temperature in data set [4] was 52 °C. Also, the “aggregated strands” value in data set [1] (fluorinated constructs, Tris buffer) was 17.4 % composition.

B1: C: cartilage oligomeric matrix protein coiled-coil with His tag, SEQ ID NO: 21 (protein)
chain: MRGSHHHHHHGSIEGRAPQMLRELQETNAALQDVRELLRQQVKEITFLKNTVMESDASGKL
modifications: His tag
Turning to B1, the melting temperature in data set [4] (Na2HPO4 pH 8.0) was 41-42 °C; in data set [3] (CCM-bound, pH 4.0), 51.8±4.3 °C; in data set [3] (native, 50 mM NaH2PO4 pH 4.0) it was 56.0±2.6 °C. Moreover, the aggregated strands in data set [1] (native) was determined as 10.0%; in data set [1] (w/CCM) it was 20.8%. Moreover, the “antiparallel β-sheet/aggregated strands” value in data set [1] (native) is listed as 11.5%; in data set [1] (w/CCM) it was 0.0%. Further, in “TEM of protein fibers”, the “average protein fiber diameter (TEM)” value worked out at 47±22 nm. The “fiber diameter after CCM binding (confocal)” value in data set [2] worked out at 4.91±1.49 μm.
